Test results from US20100021384A1 (INSTITUT PASTEUR, published 2010).

Columns and labels:
[1] = biological target: T1, murine GFAP (in murine brain extracts and mouse brain astrocytes) (murine, UniProt P03995 1-430); assay: Western blot of murine brain extracts
T1 construct: Endogenous intracellular protein; identified on blots by the 46 kDa band size and in tissue by astrocyte labelling; also called 46 Kda band
Protocol: Murine brain proteins (300 mg) were extracted in a potter with 600 μl of NuPage LDS sample buffer (Invitrogen) and kept for […] at 70° C. An aliquot was diluted 1:10 (v/v) with the same sample buffer then treated at 70° C. for 10 min. Following separation by polyacrylamide gel electrophoresis (PAGE) using NuPAGE Novex 4-12% Bis-tris gel (Invitrogen), semi-dry transfer onto Hybond-C (Amersham) and western blotting were carried out using the Xcell II blot module (Invitrogen). Prior to the immunochemical reaction, membranes were blocked in a 4% skimmed milk solution. […] Finally, peroxidase activity was visualized using a chemiluminescent kit (Amersham).
The specificity of the different VHHs was tested by ELISA and by Western blot. All the VHHs were specific for GFAP by ELISA (FIG. 5) and could detect at least 40 ng of protein.

[2] = biological target: T2, GFAP (glial fibrillary acidic protein) from normal human brain (human, UniProt P14136 1-432); assay: competition ELISA in solution (Friguet method), GFAP in solution, GFAP-coated plate
T2 construct: Purchased protein purified from human brain; coated on ELISA plates and used in solution for the KD determination; also called hGFAP
T2 sequence (P14136 whole entry): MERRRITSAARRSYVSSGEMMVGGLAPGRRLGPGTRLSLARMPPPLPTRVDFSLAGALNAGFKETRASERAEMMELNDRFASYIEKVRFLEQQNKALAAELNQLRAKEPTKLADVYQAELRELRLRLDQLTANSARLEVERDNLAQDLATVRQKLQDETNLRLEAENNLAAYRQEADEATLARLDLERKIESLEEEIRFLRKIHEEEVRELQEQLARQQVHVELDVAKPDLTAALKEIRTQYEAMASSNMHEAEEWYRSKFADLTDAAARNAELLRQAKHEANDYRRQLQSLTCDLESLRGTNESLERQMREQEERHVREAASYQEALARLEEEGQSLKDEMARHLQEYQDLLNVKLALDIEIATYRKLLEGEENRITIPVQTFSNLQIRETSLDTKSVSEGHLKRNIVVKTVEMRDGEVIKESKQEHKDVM
Protocol: (§1) The binding affinity of VHHs was determined as described by Friguet et al., 1985. Briefly, various concentrations of GFAP were incubated in solution overnight at 4° C. with a known quantity of VHH until equilibrium was reached. The VHH concentration had been determined by preliminary ELISA calibrations. 100 μl of solution was transferred to a well of a microtiter plate previously coated with GFAP and was incubated for 20 min at 4° C. The plates were washed with PBS-Tween 0.1%. VHHs were detected with rabbit anti-His tag antibodies (eBiosciences, San Diego, Calif.) followed by adding β-galactosidase-conjugated goat anti-rabbit Igs (Biosys, Compiègne, France) and 4-methylumbelliferyl β-D galactoside (Sigma Aldrich, Saint-Quentin Fallavier, France). Fluorescence was read at 460 nm, after excitation at 355 nm. KD was estimated from the slope of the regression curve obtained by plotting the reciprocal of the fraction of bound antibody versus the reciprocal of the molar concentration of antigen.

[3] = biological target: T2, GFAP (glial fibrillary acidic protein) …; assay: competition ELISA (Friguet method) after heating VHH at 75 C for 15 min and cooling at 4 C for 20 min
Protocol: as §1
The heat denaturation of VHH-E9 was adapted to the method described in Olichon et al., 2007. VHHs are re-suspended in PBS/NaCl 300 mM and are heated for 15 minutes at 75° C. then cooled down at 4° C. for 20 minutes. The binding affinity of VHHs was determined by ELISA as described in Example 2 above.

[4] = biological target: T2, GFAP (glial fibrillary acidic protein) …; assay: competition ELISA (Friguet method), GFAP

T1 sequence (P03995 whole entry): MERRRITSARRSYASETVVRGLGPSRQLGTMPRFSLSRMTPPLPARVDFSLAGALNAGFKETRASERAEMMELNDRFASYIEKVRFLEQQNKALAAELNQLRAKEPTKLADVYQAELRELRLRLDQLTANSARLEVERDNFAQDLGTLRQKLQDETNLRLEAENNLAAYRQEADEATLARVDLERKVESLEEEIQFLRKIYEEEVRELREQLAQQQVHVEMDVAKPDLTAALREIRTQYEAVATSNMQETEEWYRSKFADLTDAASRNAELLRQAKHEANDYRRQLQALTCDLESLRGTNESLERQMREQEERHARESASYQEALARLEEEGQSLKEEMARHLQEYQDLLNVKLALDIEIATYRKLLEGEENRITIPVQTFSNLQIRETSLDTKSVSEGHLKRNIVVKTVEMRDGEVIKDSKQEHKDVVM

Binder	binding result [1]	Kd [2] [nM]	Kd [3] [nM]	Kd [4] [nM]	fold reduction of affinity against native VHH-E9 [4] [fold]
VHH-E9 (VHH, Alpaca VHH selected by ribosome display against human GFAP; expressed in E. coli periplasm from pET22 with a His-tag and purified by IMAC; same molecule; also called anti-GFAP VHH-E9; native VHH-E9; not shown: His-tag (His6) from pET22 expression) VHH: DVQLQVSGGGSVQPGGSLRLSCAASGFTFSNYAMYWLRQAPGKGIEWVSRIGPGGSHTEYADSVKGRFTISRDNAKNTLSLQMNSLKPEDTAVYYCAITQQGSGRGQGTQVTVSS	binds	5.6	3.8		
VHH-A10 (VHH, Alpaca VHH selected by ribosome display against human GFAP; expressed in E. coli periplasm from pET22 with a His-tag and purified by IMAC; also called anti-GFAP VHH-A10; not shown: His-tag from pET22 expression) VHH: DVQLRASGGGLVQPGGSLRLSCAASGFTFSNYAMYWLRQAPGKGIEWVSRIGPGGSHTEYADSVKGRFTISRDNAKNTLSLQMNSLKPEDTAVYYCAITQQGSGRGQETQVTVSSAAALEHHHHHH	binds	3.1			
VHH-E3 (VHH, Alpaca VHH selected by ribosome display against human GFAP; expressed in E. coli periplasm from pET22 with a His-tag and purified by IMAC; also called anti-GFAP VHH-E3; not shown: His-tag from pET22 expression) VHH: DVQLQVSGGGSVQPGGSLRLSCAAPGFTFSNYAMYWLRQAPGKGIEWVSRIGPGGSHTEYADSVKGRFAISRDNAKNTLSLQMNSLKPEDTAAYYCAITQQGSGRGRGTQVTVSS	binds				
VHH-E9 SS-free (VHH, not shown: small tags and cut ends, VHH-E9 in which the disulfide-forming cysteines Cys 22 and Cys 96 were replaced by serine by site-directed mutagenesis; also called cysteine-free derivative of VHH-E9) VHH: DVQLQVSGGGSVQPGGSLRLSSAASGFTFSNYAMYWLRQAPGKGIEWVSRIGPGGSHTEYADSVKGRFTISRDNAKNTLSLQMNSLKPEDTAVYYSAITQQGSGRGQGTQVTVSSAAALEHHHHHH				12	2
